Substrate in data set [1]: CC1(CN)CCN(c2cnc(Sc3cccc(Cl)c3Cl)c(N)n2)CC1
Particulars: Homo sapiens; filed as negative allosteric modulator; dose 0.08 µM.
Description: Non-competitive inhibition of wild-type human SHP2 (1 to 535 residues) using DiFMUP as substrate assessed as Km at 0.08 uM measured by Lineweaver-Burk plot analysis

Substrate in data set [2]: CC1(CN)CCN(c2cnc(Sc3cccc(Cl)c3Cl)c(N)n2)CC1
The following applies: Homo sapiens; filed as negative allosteric modulator; dose 0.2 µM.

Substrate in data set [3]: CC1(CN)CCN(c2cnc(Sc3cccc(Cl)c3Cl)c(N)n2)CC1
Description: Non-competitive inhibition of wild-type human SHP2 (1 to 535 residues) using DiFMUP as substrate assessed as Km at 0.032 uM measured by Lineweaver-Burk plot analysis
The following applies: Homo sapiens; filed as negative allosteric modulator; dose 0.032 µM.

The values below come from ChEMBL document CHEMBL5143569.

B1: Tyrosine-protein phosphatase non-receptor type 11 (Homo sapiens), Q06124 (protein)
chain: MTSRRWFHPNITGVEAENLLLTRGVDGSFLARPSKSNPGDFTLSVRRNGAVTHIKIQNTGDYYDLYGGEKFATLAELVQYYMEHHGQLKEKNGDVIELKYPLNCADPTSERWFHGHLSGKEAEKLLTEKGKHGSFLVRESQSHPGDFVLSVRTGDDKGESNDGKSKVTHVMIRCQELKYDVGGGERFDSLTDLVEHYKKNPMVETLGTVLQLKQPLNTTRINAAEIESRVRELSKLAETTDKVKQGFWEEFETLQQQECKLLYSRKEGQRQENKNKNRYKNILPFDHTRVVLHDGDPNEPVSDYINANIIMPEFETKCNNSKPKKSYIATQGCLQNTVNDFWRMVFQENSRVIVMTTKEVERGKSKCVKYWPDEYALKEYGVMRVRNVKESAAHDYTLRELKLSKVGQGNTERTVWQYHFRTWPDHGVPSDPGGVLDFLEEVHHKQESIMDAGPVVVHCSAGIGRTGTFIVIDILIDIIREKGVDCDIDVPKTIQMVRSQRSGMVQTEAQYRFIYMAVQHYIETLQRRIEEEQKSKRKGHEYTNIKYSLADQTSGDQSPLPPCTPTPPCAEMREDSARVYENVGLMQQQKSFR
In the case of B1, the Km (in general, the concentration of substrate that gives half-maximal velocity) came out at 103 µM in data set [1], 142 µM in data set [2] and 95.4 µM in data set [3].
